{"source": "paper doi:10.1101/2020.12.22.423932", "about": "(bioRxiv, 2020)", "binders": {"B1": {"name": "human α5 subunit, wild type, recombinant (natural protein)", "chain": "MFLTRSEYDRGVNTFSPEGRLFQVEYAIEAIKLGSTAIGIQTSEGVCLAVEKRITSPLMEPSSIEKIVEIDAHIGCAMSGLIADAKTLIDKARVETQNHWFTYNETMTVESVTQAVSNLALQFGEEDADPGAMSRPFGVALLFGGVDEKGPQLFHMDPSGTFVQCDARAIGSASEGAQSSLQEVYHKSMTLKEAIKSSLIILKQVMEEKLNATNIELATVQPGQNFHMFTKEELEEVIKDI", "modifications": "labelled with RED-NHS 2nd Generation dye"}}, "target": "mono-ubiquitin (UniProt P0CG48 1-76)", "assay": "MST", "data": [{"binder": "B1", "values": [{"measurement": "Kd", "value": 57.7, "unit": "µM"}]}]}
